Laboratory results published in patent US20220049017A1 (KYMAB, published 2022).
Numbering of substitutions follows the chain as printed.

B1: Alirocumab hIgG4PE (antibody, V domains shown)
VH: EVQLVESGGGLVQPGGSLRLSCAASGFTFNNYAMNWVRQAPGKGLDWVSTISGSGGTTNYADSVKGRFIISRDSSKHTLYLQMNSLRAEDTAVYYCAKDSNWGNFDLWGRGTLVTVSS
VL: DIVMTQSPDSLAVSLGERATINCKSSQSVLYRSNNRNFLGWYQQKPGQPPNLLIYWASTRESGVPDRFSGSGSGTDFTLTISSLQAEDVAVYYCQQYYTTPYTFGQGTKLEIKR
B2: CL-148219 (antibody, V domains shown)
VH: QVHLQESGPGLVKPSETLSLTCTVSGGSISSYYWSWIRQYPGKGLEWIGYISYSGSSNYNPSLKRRVTISRDTSKNQFSLNLTSVIAADTAVYYCARNLMIRGAYGMDVWGQGTTVTVSS
VL: DTVMTQSPLSLPVTPGEPASISCRSSQSLLHSNGYNYLDWYLQKAGQSPQLLIYLGSNRASGVPDRFSGSVSGTDFTLKISRVEAEDVGIYYCMQALQTPFTFGPGTKVDIK
modifications: NLT motif in heavy chain framework 3 confirmed N-glycosylated by mass spectrometry
notes: Human antibody, captured through anti-human Fc in the SPR assay
B3: CL-148219 QLT mutant (antibody, V domains shown)
VH: B2 VH with N81Q
VL: B2 VL
B4: CL-274698 (antibody, V domains shown)
VH: QVQLQESGPGLVKPSGTLSLTCAVSGGSISSSKWWSWVRQPPGKGLEWIGETHYSGSTNYNPSLKSRVTISVDKSKNQFSLKLRSVTAADTAVYYCARVGATENFWGQGTLVTVSS
VL: EIVLTQSPATLSLSPGERATLSCRASQSVFRYLAWYQQKPGQAPRLLIYDASTRATDIPARFSGSGSGTDFTLTISSLEPEDFAVYYCQQRSNWPPTFGQGTKVEIK
notes: Human antibody with a kappa light chain, derived from a PCSK9 knockout mouse
B5: CL-148489 (antibody, V domains shown)
VH: EVQLVESGGGLVQPGRSLRLSCTASGFTFADYVMHWVRQTPGKGLEWVSGISWNSYSINYADSVKGRFTISRDNAQNSLYLQMNSLRAEDTALYFCAKDITYDLLTGYNYNYGLDVWGQGTTVTVSS
VL: DIVMTQTPLSLSVTPGQPASISCRSSQSLLHSDGKTYLYWYLQKPGQPPQLLIYEVSNRFSGVPDRFSGSGSGTDFTLKISRVEAEDVGLYYCMQSIQLPLTFGGGTKVEIK
notes: Human antibody with a kappa light chain
B6: CL-274711 (antibody, V domains shown)
VH: QVQLQESGPGLVKPSQTLSLTCTVSGGSISSGGYYWSWIRQHPGKGLEWIGHIFYSGSTYYNPSLKSRVTISVDTSKNQFSLKLNSVTAADTAVYYCASEGGYYDIPDVWGQGTTVTVSS
VL: B4 VL with F30S, R31N, Y49S, T53N, D57G, V85I, P96L, Q100G
notes: Human antibody with a kappa light chain, generated by immunising a PCSK9 knockout mouse

Biological target: T1, human PCSK9 D374Y gain-of-function mutant (human, UniProt Q8NBP7 31-692)
Assay: cell-based or functional assay

Binder	IC50 (read off the curve)
B1	~2 nM
B2	~4 nM

Biological target: T1, human PCSK9 D374Y gain-of-function …
Assay: cell-based or functional assay
Remark: another data set of the same source

Binder	IC50 (read off the curve)
B2	~3 nM

Biological target: T1, human PCSK9 D374Y gain-of-function …
Assay: cell-based or functional assay
Remark: another data set of the same source

Binder	IC50 (read off the curve)
B3	~2 nM

Biological target: T1, human PCSK9 D374Y gain-of-function …
Assay: cell-based or functional assay
Remark: another data set of the same source

Binder	IC50 (read off the curve)
B4	~4 nM

Biological target: T1, human PCSK9 D374Y gain-of-function …
Assay: ProteOn SPR, captured antibody, pH 5.8;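 also: antibodies captured on a GLC chip coated with anti-human Fc, rate constants from a 1:1 Langmuir fit of the sensorgrams, Kd derived from the fitted rates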
Experimental: (§1) The SPR runs were performed using a GLC chip (Bio-Rad) immobilised with anti-human Fc antibodies. The analyte human antibodies were captured on the chip surface at 2 ug/ml. […] The chip surface was regenerated using two injections of 10 mM Glycine pH 1.5 for 160 seconds at 30 μl/min. The sensorgrams were then fitted with a 1:1 model (Langmuir kinetic model) where ka and kd are fitted and KD was calculated by the ProteOn software.

Binder	kon	Kd	koff
B5	1.37e+06 M⁻¹ s⁻¹	–	–
B4	1.53e+06 M⁻¹ s⁻¹	0.025 nM	3.83e-05 s⁻¹
B2	908000 M⁻¹ s⁻¹	0.431 nM	0.000391 s⁻¹
B3	606000 M⁻¹ s⁻¹	0.753 nM	0.000456 s⁻¹

Biological target: T2, cynomolgus monkey PCSK9 (cynomolgus monkey, UniProt A8T662 31-692 (Macaca nemestrina entry), limits assumed)
T2 construct: also called Cyno PCSK9; cynoPCSK9
Assay: ProteOn SPR, captured antibody, pH 5.8;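 also: antibodies captured on a GLC chip coated with anti-human Fc, rate constants from a 1:1 Langmuir fit of the sensorgrams, Kd derived from the fitted rates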
Experimental: as §1

T2 sequence (A8T662 31-692 limits assumed): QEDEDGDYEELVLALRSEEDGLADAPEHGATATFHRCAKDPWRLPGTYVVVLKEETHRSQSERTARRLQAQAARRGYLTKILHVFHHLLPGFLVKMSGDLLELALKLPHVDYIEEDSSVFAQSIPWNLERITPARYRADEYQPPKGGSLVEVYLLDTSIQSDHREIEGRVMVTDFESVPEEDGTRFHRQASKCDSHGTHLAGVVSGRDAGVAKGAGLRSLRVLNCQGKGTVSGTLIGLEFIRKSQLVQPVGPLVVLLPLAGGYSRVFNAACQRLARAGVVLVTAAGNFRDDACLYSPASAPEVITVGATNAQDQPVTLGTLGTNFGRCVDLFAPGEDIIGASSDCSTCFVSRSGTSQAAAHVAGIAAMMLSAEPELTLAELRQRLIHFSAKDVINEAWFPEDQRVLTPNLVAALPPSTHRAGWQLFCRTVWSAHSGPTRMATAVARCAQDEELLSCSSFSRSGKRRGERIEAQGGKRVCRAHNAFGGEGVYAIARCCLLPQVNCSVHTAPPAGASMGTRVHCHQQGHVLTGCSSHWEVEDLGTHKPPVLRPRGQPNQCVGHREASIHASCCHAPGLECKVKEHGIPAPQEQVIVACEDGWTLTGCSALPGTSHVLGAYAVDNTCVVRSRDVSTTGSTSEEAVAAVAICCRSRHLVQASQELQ

Binder	Kd	koff	kon
B5	0.0924 nM	0.000121 s⁻¹	1.31e+06 M⁻¹ s⁻¹
B4	0.0297 nM	3.75e-05 s⁻¹	1.26e+06 M⁻¹ s⁻¹
B6	0.164 nM	–	–
B2	0.345 nM	0.000336 s⁻¹	975000 M⁻¹ s⁻¹
B3	0.568 nM	0.000331 s⁻¹	584000 M⁻¹ s⁻¹

Biological target: T3, mouse PCSK9 (mouse, UniProt Q80W65 35-694, limits assumed)
T3 construct: also called mPCSK9; PCSK9 mouse
Assay: ProteOn SPR, captured antibody, pH 5.8;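 also: antibodies captured on a GLC chip coated with anti-human Fc, rate constants from a 1:1 Langmuir fit of the sensorgrams, Kd derived from the fitted rates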
Experimental: as §1

T3 sequence (Q80W65 35-694 limits assumed): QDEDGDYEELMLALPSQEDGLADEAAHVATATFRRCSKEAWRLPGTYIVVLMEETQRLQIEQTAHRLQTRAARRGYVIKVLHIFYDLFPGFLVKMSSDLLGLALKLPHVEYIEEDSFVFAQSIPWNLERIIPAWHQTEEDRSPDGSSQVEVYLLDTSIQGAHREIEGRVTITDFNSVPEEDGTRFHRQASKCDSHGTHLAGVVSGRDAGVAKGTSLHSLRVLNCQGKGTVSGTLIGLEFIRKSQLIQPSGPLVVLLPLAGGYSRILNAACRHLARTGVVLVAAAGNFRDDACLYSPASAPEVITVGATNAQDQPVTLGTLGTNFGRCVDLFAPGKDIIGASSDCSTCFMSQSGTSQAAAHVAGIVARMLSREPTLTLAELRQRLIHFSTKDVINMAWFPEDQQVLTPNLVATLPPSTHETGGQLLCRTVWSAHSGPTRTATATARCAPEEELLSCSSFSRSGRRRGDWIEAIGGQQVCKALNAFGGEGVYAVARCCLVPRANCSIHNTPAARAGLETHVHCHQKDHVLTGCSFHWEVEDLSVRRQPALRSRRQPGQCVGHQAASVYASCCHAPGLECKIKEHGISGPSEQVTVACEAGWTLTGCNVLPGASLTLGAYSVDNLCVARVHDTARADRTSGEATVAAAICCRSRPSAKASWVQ

Binder	Kd	koff	kon
B5	0.46 nM	0.000632 s⁻¹	1.38e+06 M⁻¹ s⁻¹
B4	0.103 nM	0.000137 s⁻¹	1.33e+06 M⁻¹ s⁻¹
B6	1.26 nM	–	–
B2	0.691 nM	0.000701 s⁻¹	1.01e+06 M⁻¹ s⁻¹
B3	1.43 nM	0.000675 s⁻¹	472000 M⁻¹ s⁻¹

Biological target: T4, human PCSK9 variant a (human, UniProt Q8NBP7 31-692)
T4 construct: also called Human PCSK9 var A; hPCSK9a
Assay: ProteOn SPR, captured antibody, pH 5.8;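 also: antibodies captured on a GLC chip coated with anti-human Fc, rate constants from a 1:1 Langmuir fit of the sensorgrams, Kd derived from the fitted rates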
Experimental: as §1

Binder	kon	Kd	koff
B5	1.25e+06 M⁻¹ s⁻¹	–	–
B4	1.56e+06 M⁻¹ s⁻¹	0.0309 nM	4.81e-05 s⁻¹
B2	908000 M⁻¹ s⁻¹	0.426 nM	0.000387 s⁻¹
B3	602000 M⁻¹ s⁻¹	0.712 nM	0.000429 s⁻¹

Biological target: T5, human PCSK9 variant b (human, UniProt Q8NBP7 31-692)
T5 construct: also called Human PCSK9 var B; hPCSK9b
Assay: ProteOn SPR, captured antibody, pH 5.8
Experimental: as §1

Binder	kon	Kd	koff
B5	1.54e+06 M⁻¹ s⁻¹	–	–
B4	1.6e+06 M⁻¹ s⁻¹	0.0262 nM	4.19e-05 s⁻¹
B2	918000 M⁻¹ s⁻¹	0.412 nM	0.000378 s⁻¹
B3	607000 M⁻¹ s⁻¹	0.694 nM	0.000421 s⁻¹

Biological target: T6, human PCSK9 reference (human, UniProt Q8NBP7 31-692)
Assay: ProteOn SPR, captured antibody, pH 5.8
Experimental: as §1

Binder	kon	Kd	koff
B5	1.5e+06 M⁻¹ s⁻¹	–	–
B4	1.6e+06 M⁻¹ s⁻¹	0.0286 nM	4.6e-05 s⁻¹
B2	1.02e+06 M⁻¹ s⁻¹	0.368 nM	0.000374 s⁻¹
B3	622000 M⁻¹ s⁻¹	0.667 nM	0.000415 s⁻¹

Biological target: T1, human PCSK9 D374Y gain-of-function …
Assay: ProteOn SPR, captured antibody, pH 7.6;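 also: antibodies captured via anti-human Fc on a GLC sensor chip, PCSK9 binding sensorgrams fitted to a 1:1 Langmuir model giving on and off rates, with KD derived from them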
Experimental: as §1

Binder	Kd	koff	kon
B5	0.136 nM	0.000129 s⁻¹	947000 M⁻¹ s⁻¹
B4	0.0689 nM	8.36e-05 s⁻¹	1.21e+06 M⁻¹ s⁻¹
B2	0.245 nM	0.000233 s⁻¹	949000 M⁻¹ s⁻¹
B3	0.303 nM	0.000219 s⁻¹	721000 M⁻¹ s⁻¹

Biological target: T2, cynomolgus monkey PCSK9
Assay: ProteOn SPR, captured antibody, pH 7.6;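 also: antibodies captured via anti-human Fc on a GLC sensor chip, PCSK9 binding sensorgrams fitted to a 1:1 Langmuir model giving on and off rates, with KD derived from them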
Experimental: as §1

Binder	Kd	koff	kon
B5	0.0506 nM	5.73e-05 s⁻¹	1.13e+06 M⁻¹ s⁻¹
B4	0.0984 nM	0.000108 s⁻¹	1.1e+06 M⁻¹ s⁻¹
B6	0.145 nM	–	–
B2	0.296 nM	0.000284 s⁻¹	958000 M⁻¹ s⁻¹
B3	0.352 nM	0.000256 s⁻¹	728000 M⁻¹ s⁻¹

Biological target: T3, mouse PCSK9
Assay: ProteOn SPR, captured antibody, pH 7.6;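 also: antibodies captured via anti-human Fc on a GLC sensor chip, PCSK9 binding sensorgrams fitted to a 1:1 Langmuir model giving on and off rates, with KD derived from them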
Experimental: as §1

Binder	Kd	koff	kon
B5	2.69 nM	0.00192 s⁻¹	714000 M⁻¹ s⁻¹
B4	0.273 nM	0.000257 s⁻¹	941000 M⁻¹ s⁻¹
B6	0.889 nM	–	–
B2	0.52 nM	0.000411 s⁻¹	791000 M⁻¹ s⁻¹
B3	0.587 nM	0.000352 s⁻¹	600000 M⁻¹ s⁻¹

Biological target: T4, human PCSK9 variant a
Assay: ProteOn SPR, captured antibody, pH 7.6;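 also: antibodies captured via anti-human Fc on a GLC sensor chip, PCSK9 binding sensorgrams fitted to a 1:1 Langmuir model giving on and off rates, with KD derived from them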
Experimental: as §1

Binder	Kd	koff	kon
B5	0.175 nM	0.000157 s⁻¹	894000 M⁻¹ s⁻¹
B4	0.0998 nM	0.000136 s⁻¹	1.37e+06 M⁻¹ s⁻¹
B2	0.216 nM	0.000234 s⁻¹	1.08e+06 M⁻¹ s⁻¹
B3	0.267 nM	0.000229 s⁻¹	856000 M⁻¹ s⁻¹

Biological target: T5, human PCSK9 variant b
Assay: ProteOn SPR, captured antibody, pH 7.6
Experimental: as §1

Binder	Kd	koff	kon
B5	0.193 nM	0.000164 s⁻¹	848000 M⁻¹ s⁻¹
B4	0.091 nM	0.000127 s⁻¹	1.39e+06 M⁻¹ s⁻¹
B2	0.215 nM	0.000225 s⁻¹	1.05e+06 M⁻¹ s⁻¹
B3	0.257 nM	0.000221 s⁻¹	862000 M⁻¹ s⁻¹

Biological target: T6, human PCSK9 reference
Assay: ProteOn SPR, captured antibody, pH 7.6
Experimental: as §1

Binder	Kd	koff	kon
B5	0.176 nM	0.000163 s⁻¹	924000 M⁻¹ s⁻¹
B4	0.0929 nM	0.000125 s⁻¹	1.35e+06 M⁻¹ s⁻¹
B2	0.205 nM	0.00023 s⁻¹	1.13e+06 M⁻¹ s⁻¹
B3	0.272 nM	0.000226 s⁻¹	833000 M⁻¹ s⁻¹

Biological target: T1, human PCSK9 D374Y gain-of-function …
Assay: ProteOn SPR, captured antibody, pH 5.8; KD cannot be accurately determined
Experimental: as §1

Binder	Kd
B5	< 0.0073 nM

Biological target: T4, human PCSK9 variant a
Assay: as above
Experimental: as §1

Binder	Kd
B5	< 0.008 nM

Biological target: T5, human PCSK9 variant b
Assay: as above
Experimental: as §1

Binder	Kd
B5	< 0.00649 nM

Biological target: T6, human PCSK9 reference
Assay: as above
Experimental: as §1

Binder	Kd
B5	< 0.00667 nM

Biological target: T1, human PCSK9 D374Y gain-of-function …
Assay: ProteOn SPR, captured antibody, pH 5.8; value is the lower detection limit
Experimental: as §1

Binder	koff
B5	≤ 1e-05 s⁻¹

Biological target: T5, human PCSK9 variant b
Assay: as above
Experimental: as §1

Binder	koff
B5	≤ 1e-05 s⁻¹

Biological target: T6, human PCSK9 reference
Assay: as above
Experimental: as §1

Binder	koff
B5	≤ 1e-05 s⁻¹

Biological target: T4, human PCSK9 variant a
Assay: ProteOn SPR, captured antibody, pH 5.8; value is the lower detection limit; pH 5.8
Experimental: as §1

Binder	koff
B5	≤ 1e-05 s⁻¹
